# No end group written: not given here. *: point of attachment. sulfate = O=S(=O)(O)*
# T1: PSGL-1 on KG-1 cells (human) (UniProt Q14242)
# T1 sequence (sulfated tyrosine residues at the N-terminal site, looked up): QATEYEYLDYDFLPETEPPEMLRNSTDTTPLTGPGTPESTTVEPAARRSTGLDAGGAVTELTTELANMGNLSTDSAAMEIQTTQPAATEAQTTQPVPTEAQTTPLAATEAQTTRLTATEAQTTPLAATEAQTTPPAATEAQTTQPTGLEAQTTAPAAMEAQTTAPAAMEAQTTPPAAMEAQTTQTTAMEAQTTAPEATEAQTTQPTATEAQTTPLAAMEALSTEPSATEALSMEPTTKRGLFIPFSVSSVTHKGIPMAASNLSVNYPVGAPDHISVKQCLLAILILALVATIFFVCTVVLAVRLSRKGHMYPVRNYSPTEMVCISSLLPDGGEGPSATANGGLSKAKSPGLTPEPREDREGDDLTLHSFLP
# Legend:
# [1] = target: T1, PSGL-1 on KG-1 cells (human); experiment: FACS, KG-1 cells
# [2] = target: T1, PSGL-1 on KG-1 cells (human); experiment: FACS on KG-1 cells
# [3] = target: T1, PSGL-1 on KG-1 cells (human); experiment: FACS, KG-1 cells, 5 ng tetramers
# Y1 scFv [4] = experiment: competition ELISA: Y1 0.25 µg/well preincubated with peptide at 25 µM, residual binding to glycocalicin; conditions: remark: other sources report otherwise
# Y1 scFv, sequence (chain, as listed by the source): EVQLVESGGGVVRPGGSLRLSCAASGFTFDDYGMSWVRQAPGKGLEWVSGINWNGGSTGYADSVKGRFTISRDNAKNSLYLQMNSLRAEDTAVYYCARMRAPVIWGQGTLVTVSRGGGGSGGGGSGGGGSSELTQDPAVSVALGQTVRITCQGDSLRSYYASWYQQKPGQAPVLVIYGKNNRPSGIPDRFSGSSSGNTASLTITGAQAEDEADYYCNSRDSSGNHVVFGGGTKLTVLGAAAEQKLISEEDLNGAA
# Y1 scFv [5] = experiment: competition ELISA: Y1 0.25 µg/well preincubated with peptide at 0.5 µM, residual binding to glycocalicin; conditions: remark: other sources report otherwise
# Y1 scFv [6] = experiment: competition ELISA: Y1 0.25 µg/well preincubated with peptide at 2.5 µM, residual binding to glycocalicin; conditions: remark: other sources report otherwise
# Y1 scFv [7] = experiment: competition ELISA: Y1 0.25 µg/well preincubated with peptide at 200 µM, residual binding to glycocalicin; conditions: remark: other sources report otherwise
# Y1 scFv [8] = experiment: competitive FACS: Y1-scFv 1 µg preincubated with peptide at 2.5 µM, residual binding to washed platelets; conditions: remark: other sources report otherwise
# Y1 scFv [9] = experiment: competitive FACS: Y1-scFv 1 µg preincubated with peptide at 200 µM, residual binding to washed platelets; conditions: remark: other sources report otherwise
fold more reactive [1],fold increase in sensitivity of the binding [2],fold higher response than other Y1 antibody forms [3],Residual Binding of Y1 (% of baseline) (Y1 scFv [4]),Residual Binding of Y1 (% of baseline) (Y1 scFv [5]),Residual Binding of Y1 (% of baseline) (Y1 scFv [6]),Residual Binding of Y1 (% of baseline) (Y1 scFv [7]),Residual Binding of Y1 (% of baseline) (Geo Mean) (Y1 scFv [8]),Residual Binding of Y1 (% of baseline) (Geo Mean) (Y1 scFv [9]),Binder
> 100 fold,> 100 fold,10 to 20 fold,–,–,–,–,–,–,"Y1-biotag tetramers with streptavidin-PE (protein, part only; not given: streptavidin-PE carrier, not shown: another chain or arm of the molecule; large carriers; small tags and cut ends, Each chain pos 251: Lys of the BirA tag carries biotin, written K. The four chains are held non-covalently on streptavidin conjugated to phycoerythrin, which is not given.) scFv 1: MEVQLVESGGGVVRPGGSLRLSCAASGFTFDDYGMSWVRQAPGKGLEWVSGINWNGGSTGYADSVKGRFTISRDNAKNSLYLQMNSLRAEDTAVYYCARMRAPVIWGQGTLVTVSRGGGGSGGGGSGGGGSSELTQDPAVSVALGQTVRITCQGDSLRSYYASWYQQKPGQAPVLVIYGKNNRPSGIPDRFSGSSSGNTASLTITGAQAEDEADYYCNSRDSSGNHVVFGGGTKLTVLGGGGLNDIFEAQKIEWHE scFv 2: MEVQLVESGGGVVRPGGSLRLSCAASGFTFDDYGMSWVRQAPGKGLEWVSGINWNGGSTGYADSVKGRFTISRDNAKNSLYLQMNSLRAEDTAVYYCARMRAPVIWGQGTLVTVSRGGGGSGGGGSGGGGSSELTQDPAVSVALGQTVRITCQGDSLRSYYASWYQQKPGQAPVLVIYGKNNRPSGIPDRFSGSSSGNTASLTITGAQAEDEADYYCNSRDSSGNHVVFGGGTKLTVLGGGGLNDIFEAQKIEWHE scFv 3: MEVQLVESGGGVVRPGGSLRLSCAASGFTFDDYGMSWVRQAPGKGLEWVSGINWNGGSTGYADSVKGRFTISRDNAKNSLYLQMNSLRAEDTAVYYCARMRAPVIWGQGTLVTVSRGGGGSGGGGSGGGGSSELTQDPAVSVALGQTVRITCQGDSLRSYYASWYQQKPGQAPVLVIYGKNNRPSGIPDRFSGSSSGNTASLTITGAQAEDEADYYCNSRDSSGNHVVFGGGTKLTVLGGGGLNDIFEAQKIEWHE scFv 4: MEVQLVESGGGVVRPGGSLRLSCAASGFTFDDYGMSWVRQAPGKGLEWVSGINWNGGSTGYADSVKGRFTISRDNAKNSLYLQMNSLRAEDTAVYYCARMRAPVIWGQGTLVTVSRGGGGSGGGGSGGGGSSELTQDPAVSVALGQTVRITCQGDSLRSYYASWYQQKPGQAPVLVIYGKNNRPSGIPDRFSGSSSGNTASLTITGAQAEDEADYYCNSRDSSGNHVVFGGGTKLTVLGGGGLNDIFEAQKIEWHE"
–,–,–,25%,89%,62%,0%,41%,5%,GDEGDTDLY(sulfate)DY(sulfate)Y(sulfate)PEEDTE [P-1-S]

# From US20040001839A1, “Multimers - isolated molecules comprising epitopes containing sulfated moieties, antibodies to such epitopes, and uses thereof” (priority 2000, published 2004)
